IC50 data for two molecules are collected here from US20250243265A1 (published 2025).

Read-outs that look alike come from different tables or passages of the source.

Assay [1] addresses T1, linear diubiquitin (Boston Biochem) (UniProt P0CG48 1-152). Nature of the assay: phage competition ELISA; fit parameter m3.
The target in assay [2] is T1, linear diubiquitin (Boston Biochem). Nature of the assay: phage competition ELISA; fit parameter m3. The source holds these as a separate data set.

B1: 1D8 Fab displayed on phage (Fab, V domains shown)
VH: EVQLVESGGGLVQPGGSLRLSCAASGFTFTDYDIHWVRQAPGKGLEWVAGISPYGGYTDYADSVKGRFTISADTSKNTAYLQMNSLRAEDTAVYYCAREAGSRLLSVMDYWGQGTLVTVSS
VL: DIQMTQSPSSLSASVGDRVTITCRASQDVSTAVAWYQQKPGKAPKLLIYSASFLYSGVPSRFSGSGSGTDFTLTISSLQPEDFATYYCQQSYTTPPTFGQGTKVEIK
B1 registered a half-inhibitory concentration (IC50) in assay [1] of 5.77 µM.

B2: 1D8.4F5 Fab displayed on phage (Fab, V domains shown)
VH: EVQLVESGGGLVQPGGSLRLSCAASGFTFTDDDIHWVRQAPGKGLEWVAEISPYGGYTDYADSVKGRFTISADTSKNTAYLQMNSLRAEDTAVYYCAREAGSRLLSVMDYWGQGTLVTVSS
VL: DIQMTQSPSSLSASVGDRVTITCRASQDVSTAVAWYQQKPGKAPKLLIYSASFLYSGVPSRFSGSGSGTDFTLTISSLQPEDFATYYCQQSFTTPPTFGQGTKVEIK
Turning to B2, the IC50 in assay [2] was found to be 2210 nM.
